# Results: the supplement of paper PMC10567573
# B1: C22orf15 (parent)
# chain: PRGRAHLLPNPYQQDFLGLPEELR
# B2: SOAT1 (parent)
# chain: GVLILFLTFFAFLHCWLNAFAEML
# Variants of: B1
# Assay: protein stability index of a GFP-peptide fusion (GPS, HEK-293T) (PSI 1-6); higher = more stable
# Conditions: c terminus: a fixed tail appended
# 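Note: lentivirally expressed fusions sorted by FACS into six bins by GFP to DsRed ratio, PSI derived from sequencing read proportions per bin multiplied by bin number.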
row,Variant,protein stability index
1,PRGRIHLLPNPYQQDFLGLPEELR,2.96
2,PRGRQHLLPNPYQQDFLGLPEELR,4.07
3,PRGRYHLLPNPYQQDFLGLPEELR,2.98
4,PRGRRHLLPNPYQQDFLGLPEELR,3.34
5,PRGRLHLLPNPYQQDFLGLPEELR,3.12
6,PRGRWHLLPNPYQQDFLGLPEELR,2.62
7,PRGRCHLLPNPYQQDFLGLPEELR,2.69
8,PRGRFHLLPNPYQQDFLGLPEELR,2.69
9,PRARAHLLPNPYQQDFLGLPEELR,4.32
10,PRLRAHLLPNPYQQDFLGLPEELR,3.51
11,PRWRAHLLPNPYQQDFLGLPEELR,3.27
12,PRQRAHLLPNPYQQDFLGLPEELR,3.45
13,PRSRAHLLPNPYQQDFLGLPEELR,3.52
14,PRRRAHLLPNPYQQDFLGLPEELR,3.52
15,PRMRAHLLPNPYQQDFLGLPEELR,2.7
16,PRIRAHLLPNPYQQDFLGLPEELR,3.83
17,PRFRAHLLPNPYQQDFLGLPEELR,3.79
18,PRERAHLLPNPYQQDFLGLPEELR,3.82
19,PRDRAHLLPNPYQQDFLGLPEELR,4.03
20,PRYRAHLLPNPYQQDFLGLPEELR,3.72
21,PRNRAHLLPNPYQQDFLGLPEELR,3.61
22,PRHRAHLLPNPYQQDFLGLPEELR,3.79
23,PRKRAHLLPNPYQQDFLGLPEELR,3.16
24,PRVRAHLLPNPYQQDFLGLPEELR,3.93
25,PRTRAHLLPNPYQQDFLGLPEELR,2.66
26,PRCRAHLLPNPYQQDFLGLPEELR,3.15
27,PRPRAHLLPNPYQQDFLGLPEELR,3.77

# Variants of: B2
# Assay: as above
# Conditions: c terminus: a fixed tail appended
row,Variant,protein stability index
1,GVLILFLTFFAFLHCWLNAFAEME,3.41
2,GVLILFLTFFAFLHCWLNAFAEMY,2.88
3,GVLILFLTFFAFLHCWLNAFAEMC,3.67
4,GVLILFLTFFAFLHCWLNAFAEMW,2.06
5,GVLILFLTFFAFLHCWLNAFAEMI,2.63
6,GVLILFLTFFAFLHCWLNAFAEMQ,3.14
7,GVLILFLTFFAFLHCWLNAFAEMG,3.4
8,GVLILFLTFFAFLHCWLNAFAEMM,2.72
9,GVLILFLTFFAFLHCWLNAFAEMK,3.06
10,GVLILFLTFFAFLHCWLNAFAEMT,3.04
11,GVLILFLTFFAFLHCWLNAFAEMN,2.98
12,GVLILFLTFFAFLHCWLNAFAEMV,2.75
13,GVLILFLTFFAFLHCWLNAFAEMR,2.33
14,GVLILFLTFFAFLHCWLNAFAEMS,3.29
15,GVLILFLTFFAFLHCWLNAFAEMD,1.75
16,GVLILFLTFFAFLHCWLNAFAEMP,2.68
17,GVLILFLTFFAFLHCWLNAFAEMA,2.69
18,GVLILFLTFFAFLHCWLNAFAEMF,2.23
19,GVLILFLTFFAFLHCWLNAFANML,2.79
20,GVLILFLTFFAFLHCWLNAFAAML,1.99
21,GVLILFLTFFAFLHCWLNAFALML,2.92
22,GVLILFLTFFAFLHCWLNAFAPML,3.59
23,GVLILFLTFFAFLHCWLNAFAMML,3.66

row,Variant,protein stability index
1,GVLILFLTFFAFLHCWLNAFARML,1.7
2,GVLILFLTFFAFLHCWLNAFAGML,2.16
3,GVLILFLTFFAFLHCWLNAFAIML,2.95
4,GVLILFLTFFAFLHCWLNAFAYML,2.22
5,GVLILFLTFFAFLHCWLNAFAQML,2.63
6,GVLILFLTFFAFLHCWLNAFACML,2.74
7,GVLILFLTFFAFLHCWLNAFATML,2.47
8,GVLILFLTFFAFLHCWLNAFAVML,3.24
9,GVLILFLTFFAFLHCWLNAFADML,2.19
10,GVLILFLTFFAFLHCWLNAFAWML,3.25
11,GVLILFLTFFAFLHCWLNAFAHML,3.56
12,GVLILFLTFFAFLHCWLNAFASML,3.37
13,GVLILFLTFFAFLHCWLNAFAFML,3.34
14,GVLILFLTFFAFLHCWLNAFAKML,2.31
15,GVLILFLTFFAFLHCWLNAFAEDL,2.29
16,GVLILFLTFFAFLHCWLNAFAERL,2.77
17,GVLILFLTFFAFLHCWLNAFAEQL,2.73
18,GVLILFLTFFAFLHCWLNAFAEEL,1.75
19,GVLILFLTFFAFLHCWLNAFAEPL,3.44
20,GVLILFLTFFAFLHCWLNAFAETL,2.98
21,GVLILFLTFFAFLHCWLNAFAESL,3.71
22,GVLILFLTFFAFLHCWLNAFAEIL,2.85
23,GVLILFLTFFAFLHCWLNAFAEVL,2.08

row,Variant,protein stability index
1,GVLILFLTFFAFLHCWLNAFAECL,3.08
2,GVLILFLTFFAFLHCWLNAFAEWL,2.61
3,GVLILFLTFFAFLHCWLNAFAEFL,2.67
4,GVLILFLTFFAFLHCWLNAFAELL,2.88
5,GVLILFLTFFAFLHCWLNAFAEHL,2.55
6,GVLILFLTFFAFLHCWLNAFAEGL,2.18
7,GVLILFLTFFAFLHCWLNAFAEYL,2.54
8,GVLILFLTFFAFLHCWLNAFAENL,2.68
9,GVLILFLTFFAFLHCWLNAFAEAL,2.44
10,GVLILFLTFFAFLHCWLNAFAEKL,2.91
11,GVLILFLTFFAFLHCWLNAFTEML,2.29
12,GVLILFLTFFAFLHCWLNAFQEML,3.1
13,GVLILFLTFFAFLHCWLNAFSEML,1.84
14,GVLILFLTFFAFLHCWLNAFPEML,2.29
15,GVLILFLTFFAFLHCWLNAFNEML,2.76
16,GVLILFLTFFAFLHCWLNAFVEML,2.73
17,GVLILFLTFFAFLHCWLNAFMEML,3.62
18,GVLILFLTFFAFLHCWLNAFYEML,1.84
19,GVLILFLTFFAFLHCWLNAFREML,2.11
20,GVLILFLTFFAFLHCWLNAFLEML,1.4
21,GVLILFLTFFAFLHCWLNAFKEML,2.01
